The data set concerns the target MuA transposase (bacteriophage Mu) (UniProt P07636). Put plainly: cell_activity. To be noted: HeLa electroporation; linear transposon about 100 cfu/ug; 5 bp target duplication in sequenced clones (Table 1).

MuA transposase (bacteriophage Mu), sequence (P07636 whole entry): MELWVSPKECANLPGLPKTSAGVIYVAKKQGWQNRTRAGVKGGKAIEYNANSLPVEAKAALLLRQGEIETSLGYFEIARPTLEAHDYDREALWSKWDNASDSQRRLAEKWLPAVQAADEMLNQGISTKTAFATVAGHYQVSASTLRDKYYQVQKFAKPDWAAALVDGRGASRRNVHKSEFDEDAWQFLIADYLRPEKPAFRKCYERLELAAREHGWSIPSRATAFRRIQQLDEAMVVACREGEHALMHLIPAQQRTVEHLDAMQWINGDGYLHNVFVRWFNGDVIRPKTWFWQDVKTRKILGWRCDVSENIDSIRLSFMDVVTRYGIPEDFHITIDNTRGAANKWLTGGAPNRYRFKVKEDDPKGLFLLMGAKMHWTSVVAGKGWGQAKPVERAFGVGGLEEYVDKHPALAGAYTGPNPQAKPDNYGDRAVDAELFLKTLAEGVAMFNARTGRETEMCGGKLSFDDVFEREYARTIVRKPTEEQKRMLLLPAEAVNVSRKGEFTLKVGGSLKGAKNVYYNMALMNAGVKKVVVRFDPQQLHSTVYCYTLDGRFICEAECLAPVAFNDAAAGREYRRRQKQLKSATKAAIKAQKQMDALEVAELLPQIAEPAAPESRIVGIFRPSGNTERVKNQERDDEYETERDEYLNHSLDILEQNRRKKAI

As for “Kan/Neo-Mu transposon (Kan/Neo-LoxP-Mu 2135 bp or Kan/Neo-p15A-Mu 2795 bp)”, the activity was 2400 cfu/µg DNA.

These data come from patent publication US20100173800.
